Source: patent publication US20250288684A1, “ACETAL-TYPE RELEASABLE POLYOXYETHYLENE DERIVATIVE, PRODUCTION METHOD THEREOF AND ACETAL-TYPE RELEASABLE POLYOXYETHYLENE CONJUGATE” (NOF CORPORATION, priority 2022, published 2025)

Key:
[1] = Evaluation of stability of PEGylated insulin in buffer solutions with various pH values (HPLC); type: physicochemical; conditions: pH 6.0, 7.0, 8.0 and 9.0 buffer solutions, 25° C.
Experimental: With 100 μL of 100 mM phosphate buffer solution (pH 6.0), 100 μL of 100 mM phosphate buffer solution (pH 7.0), 100 μL of 100 mM ammonium formate buffer solution (pH 8.0), or 100 μL of 100 mM ammonium formate buffer solution (pH 9.0), 100 μL of 0.5 mg/mL PEG(20k)-OCO-NH-insulin prepared in Comparative Example 4 or 100 μL of 0.5 mg/mL 2MPEG(20k)-OCO-NH-insulin prepared in Example 26 was mixed, and then allowed to stand at 25° C. and subjected to HPLC analysis at a random timing.

[2] = Degradability test: decomposition in deuterium oxide buffer solution, NMR measurement; type: physicochemical; conditions: pH 7.4; sodium phosphate deuterium oxide buffer solution, pD 7.4, 40° C.; β-alanine adduct amount by NMR; read-out: half-life (t½) (converted)
Experimental: Each of the compounds of Formulas (50), (51), (52) and (53) (20 mg) was dissolved in sodium phosphate deuterium oxide buffer solution (0.7 mL) having a pD of 7.4, and then placed in a thermostatic bath at 40° C., and NMR measurement was performed at a random timing. […] A half-life (t½) was calculated from a formula (in which ln represents a logarithm with the Napier's number as a base, and λ represents a product of an exponent of the Napier's number in an approximation formula of the graph and −1) based on the approximation formula.
Each of the compounds of Formulas (75), (76), (77) and (78) (20 mg) was dissolved in sodium phosphate deuterium oxide buffer solution (0.7 mL) having a pD of 7.4, and then placed in a thermostatic bath at 40° C., and NMR measurement was performed at a random timing.

Row | Molecule | change in amount of PEGylated insulin over time [1] | half-life at 28.6 mg/mL [2] [days]
1 | PEG(20k)-OCO-NH-insulin: insulin reacted with SUNBRIGHT MENP-20T [reference compound] | no decrease | 
2 | COCCOc1cccc(C2OCc3cc(COC(=O)NCCC(=O)O)ccc3O2)c1 (centres unmarked) [Formula (53)] |  | 231
